Measurements reported in patent publication CN113480644A.

Target: SARS-CoV-2 S蛋白 (on virus particles) (SARS-CoV-2) (UniProt P0DTC2)
Assay: cell-based or functional assay

REGN10987 (antibody)
中和效率(IC 50), 假病毒中和 (MLV pseudovirus, ACE2-HEK293): 0.162 µg/mL
